Reference: article PMC7713382, “Structural analysis and insight into effector binding of the niacin-responsive repressor NiaR from Bacillus halodurans” (Scientific Reports, 2020)

Assays:
BhNiaR [1] = target: T1, BhNiaR (Halalkalibacterium halodurans, UniProt Q9KDJ7); assay: X-ray crystal structure, co-crystallization, […] Å; type: binding; details: 2 mM niacin, 0.1 M Tris-HCl pH 8.5, 15% PEG 6000; Zn2+ in site; C-terminal 3H domain, carboxyl coordinates zinc and H-bonds His83, Tyr112 of second subunit in pocket
T1 construct: gene BH1216; full length, 179 residues; E. coli BL21(DE3) star pLysS, pET-28b(+); N-terminal His-tag removed with PreScission protease; residues 7-179 modelled
T1 sequence (Q9KDJ7 1-179): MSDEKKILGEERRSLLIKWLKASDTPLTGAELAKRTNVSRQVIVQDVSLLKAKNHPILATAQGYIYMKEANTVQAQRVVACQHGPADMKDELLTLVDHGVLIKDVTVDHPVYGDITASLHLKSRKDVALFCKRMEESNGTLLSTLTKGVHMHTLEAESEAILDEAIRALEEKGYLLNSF

[2] = target: niacin-responsive repressor NiaR from Bacillus halodurans (Bacillus halodurans); assay: SEC-MALS; Superdex-200 10/300 GL, 20 mM Tris-HCl pH 8.0, 200 mM NaCl, 1 mM DTT; 10-12 mg/ml, 0.1 ml injected, 0.5 ml/min
BhNiaR [3] = target: T2, BhNiaR (Bacillus halodurans, UniProt Q9KDJ7 1-179); assay: EMSA; 1 mM niacin; Zn2+-bound protein; EMSA: 20 mM Tris pH 8.0, 100 mM KCl, 1 mM MgCl2, 1 mM DTT, 5% glycerol, +/- 1 mM niacin; 80 nM DNA, 0-3 µM protein; 30 min at room temperature (Methods) or 277; details: protein: recombinant; tags: N-terminal His-tag removed with PreScission protease; chain copies: 2; label: none (SYBR Green stain); blunt
T2 sequence: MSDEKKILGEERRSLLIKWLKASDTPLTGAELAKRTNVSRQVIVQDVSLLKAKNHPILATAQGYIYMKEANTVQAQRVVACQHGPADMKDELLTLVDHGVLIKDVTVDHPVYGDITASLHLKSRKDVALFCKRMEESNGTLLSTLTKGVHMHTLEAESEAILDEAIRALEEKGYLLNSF

For `O=C(O)c1cccnc1` [niacin], the “X-ray crystal structure, co-crystallization, 1.8 Å” value (BhNiaR [1]) was “A niacin molecule is bound to the C-terminal domain of BhNiaR near the metal-binding site”.

“niacin-responsive repressor NiaR from Bacillus halodurans (natural protein)” was tested, and the stoichiometry N [2] was 2.

B1: nifS-nadB promoter 34-bp cognate DNA (type I) (dsDNA)
DNA 1: CTCATTTACATATGTCTTGACATCTATATTTACA
DNA 2: TGTAAATATAGATGTCAAGACATATGTAAATGAG
Molecule B1 has a Kd (BhNiaR [3]) of about 500 nM.
